Assay results: PMC7058361, “Functional interactions between posttranslationally modified amino acids of methyl-coenzyme M reductase in Methanosarcina acetivorans” (PLoS Biology, 2020)

B1: McrA from the ΔycaO-tfuA mutant of M. acetivorans (lacks thioglycine) (natural protein, Methanosarcina acetivorans, UniProt Q8THH1 1-570, looked up)
chain: MAADIFAKFKKSMEVKFTQEYGSNKQAGGDITGKTEKFLRLGPEQDARKQEMIKAGKEIAEKRGIAFYNPMMHMGAPLGQRAITPYTISGTDIVAEPDDLHYVNNAAMQQMWDDIRRTCIVGLDMAHETLEKRLGKEVTPETINHYLETLNHAMPGAAVVQEMMVETHPALVDDCYVKIFTGDDELADEIDKQYVINVNKMFSEEQAAQIKASIGKTTWQAIHIPTIVSRTTDGAQTSRWAAMQIGMSFISAYAMCAGEAAVADLSFAAKHAALVSMGEMLPARRARGPNEPGGLSFGHLSDIVQTSRVSKDPAKIALEVVGAGCMLYDQIWLGSYMSGGVGFTQYATAAYTDDILDNNTYYDVDYINDKYNGAANLGTDNKVKATLDVVKDIATESTLYGIETYEKFPTALEDHFGGSQRATVLAAASGVACALATGNANAGLSGWYLSMYVHKEAWGRLGFFGFDLQDQCGATNVLSYQGDEGLPDELRGPNYPNYAMNVGHQGGYAGIAQAAHSGRGDAFTVNPLLKVCFADELMPFNFAEPRREFGRGAIREFMPAGERSLVIPAK
modifications: N1-methylhistidine at His271; 5-(S)-methylarginine at Arg285; didehydroaspartate at Asp470; S-methylcysteine at Cys472; Gly465 unmodified
notes: McrA, alpha subunit of methyl-coenzyme M reductase, Methanosarcina acetivorans; chromosomally encoded; differs only in the posttranslational modifications; also called McrA with unmodified Gly465; source: endogenous, M. acetivorans ΔycaO-tfuA strain with TAP-tagged mcrG
B2: McrA from the ΔmamAΔmcmA double mutant of M. acetivorans (lacks 5-(S)-methylarginine and S-methylcysteine) (natural protein, Methanosarcina acetivorans, UniProt Q8THH1 1-570, looked up)
chain: MAADIFAKFKKSMEVKFTQEYGSNKQAGGDITGKTEKFLRLGPEQDARKQEMIKAGKEIAEKRGIAFYNPMMHMGAPLGQRAITPYTISGTDIVAEPDDLHYVNNAAMQQMWDDIRRTCIVGLDMAHETLEKRLGKEVTPETINHYLETLNHAMPGAAVVQEMMVETHPALVDDCYVKIFTGDDELADEIDKQYVINVNKMFSEEQAAQIKASIGKTTWQAIHIPTIVSRTTDGAQTSRWAAMQIGMSFISAYAMCAGEAAVADLSFAAKHAALVSMGEMLPARRARGPNEPGGLSFGHLSDIVQTSRVSKDPAKIALEVVGAGCMLYDQIWLGSYMSGGVGFTQYATAAYTDDILDNNTYYDVDYINDKYNGAANLGTDNKVKATLDVVKDIATESTLYGIETYEKFPTALEDHFGGSQRATVLAAASGVACALATGNANAGLSGWYLSMYVHKEAWGRLGFFGFDLQDQCGATNVLSYQGDEGLPDELRGPNYPNYAMNVGHQGGYAGIAQAAHSGRGDAFTVNPLLKVCFADELMPFNFAEPRREFGRGAIREFMPAGERSLVIPAK
modifications: N1-methylhistidine at His271; thioglycine at Gly465; didehydroaspartate at Asp470; Arg285 and Cys472 unmodified
notes: McrA, alpha subunit of methyl-coenzyme M reductase, Methanosarcina acetivorans; chromosomally encoded; differs only in the posttranslational modifications; source: endogenous, M. acetivorans ΔmamAΔmcmA strain with TAP-tagged mcrG
B3: McrA from the ΔmamA mutant of M. acetivorans (lacks 5-(S)-methylarginine) (natural protein, Methanosarcina acetivorans, UniProt Q8THH1 1-570, looked up)
chain: MAADIFAKFKKSMEVKFTQEYGSNKQAGGDITGKTEKFLRLGPEQDARKQEMIKAGKEIAEKRGIAFYNPMMHMGAPLGQRAITPYTISGTDIVAEPDDLHYVNNAAMQQMWDDIRRTCIVGLDMAHETLEKRLGKEVTPETINHYLETLNHAMPGAAVVQEMMVETHPALVDDCYVKIFTGDDELADEIDKQYVINVNKMFSEEQAAQIKASIGKTTWQAIHIPTIVSRTTDGAQTSRWAAMQIGMSFISAYAMCAGEAAVADLSFAAKHAALVSMGEMLPARRARGPNEPGGLSFGHLSDIVQTSRVSKDPAKIALEVVGAGCMLYDQIWLGSYMSGGVGFTQYATAAYTDDILDNNTYYDVDYINDKYNGAANLGTDNKVKATLDVVKDIATESTLYGIETYEKFPTALEDHFGGSQRATVLAAASGVACALATGNANAGLSGWYLSMYVHKEAWGRLGFFGFDLQDQCGATNVLSYQGDEGLPDELRGPNYPNYAMNVGHQGGYAGIAQAAHSGRGDAFTVNPLLKVCFADELMPFNFAEPRREFGRGAIREFMPAGERSLVIPAK
modifications: N1-methylhistidine at His271; thioglycine at Gly465; didehydroaspartate at Asp470; S-methylcysteine at Cys472; Arg285 unmodified
notes: McrA, alpha subunit of methyl-coenzyme M reductase, Methanosarcina acetivorans; chromosomally encoded; differs only in the posttranslational modifications; also called McrA with unmodified Arg285; source: endogenous, M. acetivorans ΔmamA strain with TAP-tagged mcrG
B4: McrA from the ΔmamAΔycaO-tfuA double mutant of M. acetivorans (lacks 5-(S)-methylarginine and thioglycine) (natural protein, Methanosarcina acetivorans, UniProt Q8THH1 1-570, looked up)
chain: MAADIFAKFKKSMEVKFTQEYGSNKQAGGDITGKTEKFLRLGPEQDARKQEMIKAGKEIAEKRGIAFYNPMMHMGAPLGQRAITPYTISGTDIVAEPDDLHYVNNAAMQQMWDDIRRTCIVGLDMAHETLEKRLGKEVTPETINHYLETLNHAMPGAAVVQEMMVETHPALVDDCYVKIFTGDDELADEIDKQYVINVNKMFSEEQAAQIKASIGKTTWQAIHIPTIVSRTTDGAQTSRWAAMQIGMSFISAYAMCAGEAAVADLSFAAKHAALVSMGEMLPARRARGPNEPGGLSFGHLSDIVQTSRVSKDPAKIALEVVGAGCMLYDQIWLGSYMSGGVGFTQYATAAYTDDILDNNTYYDVDYINDKYNGAANLGTDNKVKATLDVVKDIATESTLYGIETYEKFPTALEDHFGGSQRATVLAAASGVACALATGNANAGLSGWYLSMYVHKEAWGRLGFFGFDLQDQCGATNVLSYQGDEGLPDELRGPNYPNYAMNVGHQGGYAGIAQAAHSGRGDAFTVNPLLKVCFADELMPFNFAEPRREFGRGAIREFMPAGERSLVIPAK
modifications: N1-methylhistidine at His271; didehydroaspartate at Asp470; S-methylcysteine at Cys472; Arg285 and Gly465 unmodified
notes: McrA, alpha subunit of methyl-coenzyme M reductase, Methanosarcina acetivorans; chromosomally encoded; differs only in the posttranslational modifications; source: endogenous, M. acetivorans ΔmamAΔycaO-tfuA strain with TAP-tagged mcrG
B5: McrA from the ΔmamAΔmcmAΔycaO-tfuA triple mutant of M. acetivorans (lacks 5-(S)-methylarginine, S-methylcysteine and thioglycine) (natural protein, Methanosarcina acetivorans, UniProt Q8THH1 1-570, looked up)
chain: MAADIFAKFKKSMEVKFTQEYGSNKQAGGDITGKTEKFLRLGPEQDARKQEMIKAGKEIAEKRGIAFYNPMMHMGAPLGQRAITPYTISGTDIVAEPDDLHYVNNAAMQQMWDDIRRTCIVGLDMAHETLEKRLGKEVTPETINHYLETLNHAMPGAAVVQEMMVETHPALVDDCYVKIFTGDDELADEIDKQYVINVNKMFSEEQAAQIKASIGKTTWQAIHIPTIVSRTTDGAQTSRWAAMQIGMSFISAYAMCAGEAAVADLSFAAKHAALVSMGEMLPARRARGPNEPGGLSFGHLSDIVQTSRVSKDPAKIALEVVGAGCMLYDQIWLGSYMSGGVGFTQYATAAYTDDILDNNTYYDVDYINDKYNGAANLGTDNKVKATLDVVKDIATESTLYGIETYEKFPTALEDHFGGSQRATVLAAASGVACALATGNANAGLSGWYLSMYVHKEAWGRLGFFGFDLQDQCGATNVLSYQGDEGLPDELRGPNYPNYAMNVGHQGGYAGIAQAAHSGRGDAFTVNPLLKVCFADELMPFNFAEPRREFGRGAIREFMPAGERSLVIPAK
modifications: N1-methylhistidine at His271; didehydroaspartate at Asp470; Arg285, Gly465 and Cys472 unmodified
notes: McrA, alpha subunit of methyl-coenzyme M reductase, Methanosarcina acetivorans; chromosomally encoded; differs only in the posttranslational modifications; also called McrA from the triple-deletion mutant; source: endogenous, M. acetivorans ΔmamAΔmcmAΔycaO-tfuA strain with TAP-tagged mcrG
B6: McrA from the ΔmcmAΔycaO-tfuA double mutant of M. acetivorans (lacks S-methylcysteine and thioglycine) (natural protein, Methanosarcina acetivorans, UniProt Q8THH1 1-570, looked up)
chain: MAADIFAKFKKSMEVKFTQEYGSNKQAGGDITGKTEKFLRLGPEQDARKQEMIKAGKEIAEKRGIAFYNPMMHMGAPLGQRAITPYTISGTDIVAEPDDLHYVNNAAMQQMWDDIRRTCIVGLDMAHETLEKRLGKEVTPETINHYLETLNHAMPGAAVVQEMMVETHPALVDDCYVKIFTGDDELADEIDKQYVINVNKMFSEEQAAQIKASIGKTTWQAIHIPTIVSRTTDGAQTSRWAAMQIGMSFISAYAMCAGEAAVADLSFAAKHAALVSMGEMLPARRARGPNEPGGLSFGHLSDIVQTSRVSKDPAKIALEVVGAGCMLYDQIWLGSYMSGGVGFTQYATAAYTDDILDNNTYYDVDYINDKYNGAANLGTDNKVKATLDVVKDIATESTLYGIETYEKFPTALEDHFGGSQRATVLAAASGVACALATGNANAGLSGWYLSMYVHKEAWGRLGFFGFDLQDQCGATNVLSYQGDEGLPDELRGPNYPNYAMNVGHQGGYAGIAQAAHSGRGDAFTVNPLLKVCFADELMPFNFAEPRREFGRGAIREFMPAGERSLVIPAK
modifications: N1-methylhistidine at His271; 5-(S)-methylarginine at Arg285; didehydroaspartate at Asp470; Gly465 and Cys472 unmodified
notes: McrA, alpha subunit of methyl-coenzyme M reductase, Methanosarcina acetivorans; chromosomally encoded; differs only in the posttranslational modifications; also called McrA from ΔycaO-tfuA/ΔmcmA; source: endogenous, M. acetivorans ΔmcmAΔycaO-tfuA strain with TAP-tagged mcrG
B7: McrA from the ΔmcmA mutant of M. acetivorans (lacks S-methylcysteine) (natural protein, Methanosarcina acetivorans, UniProt Q8THH1 1-570, looked up)
chain: MAADIFAKFKKSMEVKFTQEYGSNKQAGGDITGKTEKFLRLGPEQDARKQEMIKAGKEIAEKRGIAFYNPMMHMGAPLGQRAITPYTISGTDIVAEPDDLHYVNNAAMQQMWDDIRRTCIVGLDMAHETLEKRLGKEVTPETINHYLETLNHAMPGAAVVQEMMVETHPALVDDCYVKIFTGDDELADEIDKQYVINVNKMFSEEQAAQIKASIGKTTWQAIHIPTIVSRTTDGAQTSRWAAMQIGMSFISAYAMCAGEAAVADLSFAAKHAALVSMGEMLPARRARGPNEPGGLSFGHLSDIVQTSRVSKDPAKIALEVVGAGCMLYDQIWLGSYMSGGVGFTQYATAAYTDDILDNNTYYDVDYINDKYNGAANLGTDNKVKATLDVVKDIATESTLYGIETYEKFPTALEDHFGGSQRATVLAAASGVACALATGNANAGLSGWYLSMYVHKEAWGRLGFFGFDLQDQCGATNVLSYQGDEGLPDELRGPNYPNYAMNVGHQGGYAGIAQAAHSGRGDAFTVNPLLKVCFADELMPFNFAEPRREFGRGAIREFMPAGERSLVIPAK
modifications: N1-methylhistidine at His271; 5-(S)-methylarginine at Arg285; thioglycine at Gly465; didehydroaspartate at Asp470; Cys472 unmodified
notes: McrA, alpha subunit of methyl-coenzyme M reductase, Methanosarcina acetivorans; chromosomally encoded; differs only in the posttranslational modifications; also called McrA with unmodified Cys472; source: endogenous, M. acetivorans ΔmcmA strain with TAP-tagged mcrG
B8: alpha subunit of methyl-coenzyme M reductase (McrA) from wild-type M. acetivorans, fully modified (natural protein, Methanosarcina acetivorans, UniProt Q8THH1 1-570, looked up)
chain: MAADIFAKFKKSMEVKFTQEYGSNKQAGGDITGKTEKFLRLGPEQDARKQEMIKAGKEIAEKRGIAFYNPMMHMGAPLGQRAITPYTISGTDIVAEPDDLHYVNNAAMQQMWDDIRRTCIVGLDMAHETLEKRLGKEVTPETINHYLETLNHAMPGAAVVQEMMVETHPALVDDCYVKIFTGDDELADEIDKQYVINVNKMFSEEQAAQIKASIGKTTWQAIHIPTIVSRTTDGAQTSRWAAMQIGMSFISAYAMCAGEAAVADLSFAAKHAALVSMGEMLPARRARGPNEPGGLSFGHLSDIVQTSRVSKDPAKIALEVVGAGCMLYDQIWLGSYMSGGVGFTQYATAAYTDDILDNNTYYDVDYINDKYNGAANLGTDNKVKATLDVVKDIATESTLYGIETYEKFPTALEDHFGGSQRATVLAAASGVACALATGNANAGLSGWYLSMYVHKEAWGRLGFFGFDLQDQCGATNVLSYQGDEGLPDELRGPNYPNYAMNVGHQGGYAGIAQAAHSGRGDAFTVNPLLKVCFADELMPFNFAEPRREFGRGAIREFMPAGERSLVIPAK
modifications: N1-methylhistidine at His271; 5-(S)-methylarginine at Arg285; thioglycine at Gly465; didehydroaspartate at Asp470; S-methylcysteine at Cys472
notes: McrA, alpha subunit of methyl-coenzyme M reductase, Methanosarcina acetivorans; chromosomally encoded; Two copies stand in the α2β2γ2 complex; also called α subunit of MCR; α-subunit; source: endogenous, M. acetivorans strain with TAP-tagged mcrG

Target: the molecule itself
Experiment: crystal structure; TAP-tagged MCR variants affinity-purified aerobically from the modification mutants, inactive Ni(II) form; 3-30 mg/ml, hanging drops, same reservoir solution as the wild type; 1.9-2.3 Å

Binding result, binds:
B1
B2
B3
B4
B5
B6
B7

Target: the molecule itself
Experiment: crystal structure; wild-type TAP-tagged MCR complex affinity-purified aerobically from M. acetivorans, inactive Ni(II) form; 25 mg/ml, sitting drops, 0.2 M ammonium acetate, 0.1 M sodium acetate pH 4, 15% PEG 4000, room temperature; 1.65 Å

Binding result, binds:
B8
